This is an account of results in IntAct's records for PubMed 21807993.

B1: E4 ubiquitin-protein ligase UFD2 (Saccharomyces cerevisiae), P54860 (parent)
chain: MTAIEDILQITTDPSDTRGYSLLKSEEVPQGSTLGVDFIDTLLLYQLTENEKLDKPFEYLNDCFRRNQQQKRITKNKPNAESLHSTFQEIDRLVIGYGVVALQIENFCMNGAFINYITGIVSNVNSYTDFLSQIIQRAILEGTALDLLNAVFPTLLEYCNKHVSHFDLNESVIYNNVLTIFELFVTFKPIAEIFTKIDGFFADYSCKPQDFERKTILGPILSLSPIEAAVAIRNYGDNLLRSKQQTAMIHESLQAEHKVVIDRLFFIVDKLVRGSLNSRTDMISYFAHIANKNHLRRADHPPFKELSSNGFMSNITLLLVRFSQPFLDISYKKIDKIDANYFNNPSLFIDLSGETRLNSDFKEADAFYDKNRKTADSKPNFISDCFFLTLTYLHYGLGGTLSFEEKMGSEIKALKEEIEKVKKIAANHDVFARFITAQLSKMEKALKTTESLRFALQGFFAHRSLQLEVFDFICGASTFLIRVVDPEHEFPFKQIKLPLIPDQIGVENVDNADFLRAHAPVPFKYYPEFVVEGPVNYSLYISKYQTSPIFRNPRLGSFVEFTTMVLRCPELVSNPHLKGKLVQLLSVGAMPLTDNSPGFMMDIFEHDELVNKNLLYALLDFYVIVEKTGSSSQFYDKFNSRYSISIILEELYYKIPSYKNQLIWQSQNNADFFVRFVARMLNDLTFLLDEGLSNLAEVHNIQNELDNRARGAPPTREEEDKELQTRLASASRQAKSSCGLADKSMKLFEIYSKDIPAAFVTPEIVYRLASMLNYNLESLVGPKCGELKVKDPQSYSFNPKDLLKALTTVYINLSEQSEFISAVAKDERSFNRNLFVRAVDILGRKTGLASPEFIEKLLNFANKAEEQRKADEEEDLEYGDVPDEFLDPLMYTIMKDPVILPASKMNIDRSTIKAHLLSDSTDPFNRMPLKLEDVTPNEELRQKILCFKKQKKEEAKHKASE

Variants of B1 are the subject of the assay. The conditions noted are these: with cdc48_yeast CDC48, P25694.
cdc48_yeast CDC48, P25694, sequence (P25694 whole entry): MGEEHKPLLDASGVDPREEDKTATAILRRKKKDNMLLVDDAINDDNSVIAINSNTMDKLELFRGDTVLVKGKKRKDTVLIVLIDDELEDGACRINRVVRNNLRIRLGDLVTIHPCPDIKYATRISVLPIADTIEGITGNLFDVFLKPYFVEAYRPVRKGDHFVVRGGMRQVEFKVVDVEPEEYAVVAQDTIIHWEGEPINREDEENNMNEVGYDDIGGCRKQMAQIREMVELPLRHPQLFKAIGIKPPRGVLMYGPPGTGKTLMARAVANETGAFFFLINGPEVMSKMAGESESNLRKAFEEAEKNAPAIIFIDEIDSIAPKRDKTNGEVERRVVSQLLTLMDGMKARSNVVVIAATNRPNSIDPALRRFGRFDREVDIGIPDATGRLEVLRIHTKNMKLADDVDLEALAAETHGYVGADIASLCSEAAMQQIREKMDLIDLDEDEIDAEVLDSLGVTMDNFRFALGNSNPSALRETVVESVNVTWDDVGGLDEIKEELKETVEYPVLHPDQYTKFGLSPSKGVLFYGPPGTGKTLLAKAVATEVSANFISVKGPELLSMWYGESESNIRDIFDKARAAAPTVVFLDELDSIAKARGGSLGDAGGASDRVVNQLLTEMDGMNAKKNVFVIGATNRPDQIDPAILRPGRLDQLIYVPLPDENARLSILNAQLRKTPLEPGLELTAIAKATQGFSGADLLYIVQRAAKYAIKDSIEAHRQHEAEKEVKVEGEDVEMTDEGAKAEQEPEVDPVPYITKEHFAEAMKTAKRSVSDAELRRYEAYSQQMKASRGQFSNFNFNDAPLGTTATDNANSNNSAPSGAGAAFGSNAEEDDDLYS
Turning to C385Y, the “effect of a mutation on the interaction” value is listed as “disrupting interaction strength”.

Take G274D: the “effect of a mutation on the interaction” value is on record as “disrupting interaction strength”.
